Assay [1] deals with rTRPV6* (rat TRPV6 construct previously used for crystallographic studies) (rat). As to the kind of experiment: cryo-EM structure.
The target of assay [2] is T1, hTRPV6 (Homo sapiens, UniProt Q9H1D0, R510E).
T1 sequence (Q9H1D0 41-765 R510E): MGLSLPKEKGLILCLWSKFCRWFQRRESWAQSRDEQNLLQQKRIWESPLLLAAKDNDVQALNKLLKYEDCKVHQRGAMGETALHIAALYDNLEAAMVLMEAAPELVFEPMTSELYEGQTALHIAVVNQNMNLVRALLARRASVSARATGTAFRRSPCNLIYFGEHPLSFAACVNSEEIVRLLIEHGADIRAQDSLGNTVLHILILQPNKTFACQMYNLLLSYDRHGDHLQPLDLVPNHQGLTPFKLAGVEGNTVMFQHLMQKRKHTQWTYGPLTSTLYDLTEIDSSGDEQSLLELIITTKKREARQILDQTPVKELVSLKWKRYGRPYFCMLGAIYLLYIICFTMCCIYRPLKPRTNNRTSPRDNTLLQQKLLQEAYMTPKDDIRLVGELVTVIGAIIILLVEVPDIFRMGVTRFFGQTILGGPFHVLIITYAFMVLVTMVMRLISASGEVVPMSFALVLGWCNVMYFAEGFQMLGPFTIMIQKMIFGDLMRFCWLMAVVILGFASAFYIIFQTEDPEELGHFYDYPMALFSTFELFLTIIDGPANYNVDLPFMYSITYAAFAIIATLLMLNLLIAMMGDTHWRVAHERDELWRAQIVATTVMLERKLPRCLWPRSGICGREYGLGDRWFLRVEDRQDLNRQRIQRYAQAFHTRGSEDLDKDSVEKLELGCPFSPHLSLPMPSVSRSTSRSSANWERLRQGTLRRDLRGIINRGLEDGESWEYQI
Briefly: Fura-2 AM ratiometric Ca2+ uptake in HEK cells. Type of assay: cell-based.

The target in assay [3] is hTRPV6-R470E (human). As to the kind of experiment: cryo-EM structure.

Among the data in paper PMC5854407 (Nature, 2017) are stoichiometry N and IC50 values, retold here.

By stoichiometry N is commonly meant a count of units in the complex or per binding partner. In assay [1], “rTRPV6* (rat TRPV6 construct previously used for crystallographic studies) (natural protein)” had a stoichiometry N of 4. Broadly, the IC50 is the midpoint of a concentration-inhibition curve. Read a low IC50 as inhibition by little substance. Regarding `NCCOB(c1ccccc1)c1ccccc1` [2-APB], in assay [2], the IC50 worked out at 85 ± 5 µM. In the case of hTRPV6-R470E (natural protein), the stoichiometry N in assay [3] came to 4.
